Target: T1, OhrR-C (chromosomal OhrR) (Acinetobacter baumannii ATCC 19606) (UniProt A0A077GRS4)
T1 sequence: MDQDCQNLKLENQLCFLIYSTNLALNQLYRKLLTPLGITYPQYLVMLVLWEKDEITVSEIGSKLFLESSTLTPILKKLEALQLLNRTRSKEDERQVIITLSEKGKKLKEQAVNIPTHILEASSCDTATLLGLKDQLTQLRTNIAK
Test: EMSA
Details: 20 mM Tris-HCl pH 7.5, 100 mM MgCl2, 150 mM KCl, 50 mM EDTA, 12.5% glycerol, 250 uM DTT, 830 ng/mL poly(dI-dC), 250 ng/mL BSA, 50 nM DNA; room temperature …

TGTATATTACCTTGCTTAATATTATATTGTGTAAAATATAATTGCACACAATTAAATATAGGTCAATTATTTTCCTTTGTTTTTTATTTAACATAATGGGCGTTATATGAAATTCAAAAAAATGATACTATTTTTGTGATAATTAAATAAATTTTAGGTGAACATAAGTTAAATAGAGCTTATATCGGCC (double strand) [Pohr-p]
binding: binds more weakly

From publication PMC8002998
